Consider one protein from PMC3094545 (Structure (London, England : 1993), 2011).

This data set concerns the molecule itself. The data set can be described thus: crystal structure.

B1: cytoplasmic domain of ZntB from Salmonella enterica serovar Typhimurium (domain or fragment)
chain: MEAIKGSDVNVPDAVFAWLLDGRGGVKPLEDNDVIDSQHPCWLHLNYTHPDSARWLASTPLLPNNVRDALAGESSRPRVSRMGEGTLITLRCINGSTDERPDQLVAMRLYMDERFIVSTRQRKVLALDDVVSDLQEGTGPVDCGGWLVDVCDALTDHASEFIEELHDKIIDLEDNLLDQQIPPRGFLALLRKQLIVMRRYMAPQRDVYARLASERLPWMSDDHRRRMQDIADRLGRGLDEIDACIARTGIMADEIAQVMQES
Consider B1, for which the “stoichiometry N” value came to 5.

As a reminder, the stoichiometry N is the number of molecules, sites or subunits per partner or assembly.
